Experimental data published in patent US20230257470A1 (published 2023).

T1: human FcγRIIb (human, UniProt P31994 43-217, limits assumed)
T1 construct: also called FcyRIfb; FcγIIB
T1 sequence: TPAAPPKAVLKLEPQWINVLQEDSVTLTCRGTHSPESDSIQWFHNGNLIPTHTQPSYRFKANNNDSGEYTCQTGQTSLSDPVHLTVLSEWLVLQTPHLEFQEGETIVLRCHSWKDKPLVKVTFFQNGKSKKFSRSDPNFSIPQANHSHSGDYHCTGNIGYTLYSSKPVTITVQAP

T2: human FcγRIIa type H (human, UniProt P12318 36-217)
T2 construct: also called FcyRIIaH; FcγRIIa(H)
T2 sequence: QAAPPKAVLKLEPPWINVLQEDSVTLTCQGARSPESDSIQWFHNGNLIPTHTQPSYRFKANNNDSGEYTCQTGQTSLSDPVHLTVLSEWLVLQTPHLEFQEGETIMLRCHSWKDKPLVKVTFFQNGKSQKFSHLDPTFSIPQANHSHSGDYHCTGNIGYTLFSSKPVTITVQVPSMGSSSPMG


Assays:
Assay in all cases: SPR (Biacore), FcγR over captured antibody; binding amount relative to IL6R-BF648/IL6R-L x100
human FcγRIIIa type V = biological target: T3, human FcγRIIIa type V (human, UniProt P08637 17-208, limits assumed)
T3 construct: also called FcyRIIIa; FcγRIIIaV
T3 sequence (P08637 other isoform, or with tags, fused parts or gaps limits assumed): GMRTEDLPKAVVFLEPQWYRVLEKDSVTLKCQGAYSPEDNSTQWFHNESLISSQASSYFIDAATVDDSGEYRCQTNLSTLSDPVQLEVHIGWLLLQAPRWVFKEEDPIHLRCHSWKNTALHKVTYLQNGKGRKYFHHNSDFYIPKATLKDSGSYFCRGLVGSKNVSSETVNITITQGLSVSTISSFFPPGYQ

human FcγRIIb = biological target: T1, human FcγRIIb
human FcγRIa = biological target: T4, human FcγRIa (human, UniProt P12314 16-292, limits assumed)
T4 construct: also called FcyRIa; CD64
T4 sequence (P12314 16-292 limits assumed): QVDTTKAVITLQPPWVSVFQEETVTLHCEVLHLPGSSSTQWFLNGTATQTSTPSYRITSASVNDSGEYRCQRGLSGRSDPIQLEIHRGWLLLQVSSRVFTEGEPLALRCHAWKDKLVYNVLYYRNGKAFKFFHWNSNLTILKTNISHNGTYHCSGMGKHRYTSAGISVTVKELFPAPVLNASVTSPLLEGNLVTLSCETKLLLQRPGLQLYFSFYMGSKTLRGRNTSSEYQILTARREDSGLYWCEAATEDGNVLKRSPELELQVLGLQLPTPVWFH

human FcγRIIa type H = biological target: T2, human FcγRIIa type H

Row | relative binding (human FcγRIIIa type V) | relative binding (human FcγRIIb) | relative binding (human FcγRIa) | relative binding (human FcγRIIa type H) | Binder
1 | 94 % of IL6R-BF648/IL6R-L | 104 % of IL6R-BF648/IL6R-L | 73 % of IL6R-BF648/IL6R-L | 83 % of IL6R-BF648/IL6R-L | IL6R-2B169/IL6R-L (antibody, human IgG1, name in EU numbering) heavy: QVQLQESGPGLVKPSETLSLTCAVSGHSISHDHAWSWVRQPPGEGLEWIGFISYSGITNYNPSLQGRVTISRDNSKNTLYLQMNSLRAEDTAVYYCARSLARTTAMDYWGEGTLVTVSSASTKGPSVFPLAPSSKSTSGGTAALGCLVKDYFPEPVTVSWNSGALTSGVHTFPAVLQSSGLYSLSSVVTVPSSSLGTQTYICNVNHKPSNTKVDKKVEPKSCDKTHTCPPCPAPELLGGDSVFLFPPKPKDTLMISRTPEVTCVVVDVSHEDPEVKFNWYVDGVEVHNAKTKPREEQYNSTYRVVSVLTVLHQDWLNGKEYKCKISNKALPAPIEKTISKAKGQPREPQVYTLPPSRDELTKNQVSLTCLVKGFYPSDIAVEWESNGQPENNYKTTPPVLDSDGSFFLYSKLTVDKSRWQQGNVFSCSVMHEALHNHYTQESLSLSP light: DIQMTQSPSSLSASVGDRVTITCRASQDISSYLNWYQQKPGKAPKLLIYYTSRLHSGVPSRFSGSGSGTDFTFTISSLQPEDIATYYCQQGNTLPYTFGQGTKVEIK
2 | 129 % of IL6R-BF648/IL6R-L | 118 % of IL6R-BF648/IL6R-L | 123 % of IL6R-BF648/IL6R-L | 114 % of IL6R-BF648/IL6R-L | IL6R-BP107/IL6R-L (antibody, human IgG1, name in EU numbering) heavy: QVQLQESGPGLVKPSETLSLTCAVSGHSISHDHAWSWVRQPPGEGLEWIGFISYSGITNYNPSLQGRVTISRDNSKNTLYLQMNSLRAEDTAVYYCARSLARTTAMDYWGEGTLVTVSSASTKGPSVFPLAPSSKSTSGGTAALGCLVKDYFPEPVTVSWNSGALTSGVHTFPAVLQSSGLYSLSSVVTVPSSSLGTQTYICNVNHKPSNTKVDKKVEPKSCDKTHTCPPCPAPELLGGDSVFLFPPKPKDTLMISRTPEVTCVVVDVSEEDPEVKFNWYVDGVEVHNAKTKPREEQYNSTYRVVSVLTVLHQDWLNGKEYKCKVSNKALPAPIEKTISKAKGQPREPQVYTLPPSRDELTKNQVSLTCLVKGFYPSDIAVEWESNGQPENNYKTTPPVLDSDGSFFLYSKLTVDKSRWQQGNVFSCSVMHEALHNHYTQESLSLSP light: DIQMTQSPSSLSASVGDRVTITCRASQDISSYLNWYQQKPGKAPKLLIYYTSRLHSGVPSRFSGSGSGTDFTFTISSLQPEDIATYYCQQGNTLPYTFGQGTKVEIK
3 | 122 % of IL6R-BF648/IL6R-L | 113 % of IL6R-BF648/IL6R-L | 116 % of IL6R-BF648/IL6R-L | 115 % of IL6R-BF648/IL6R-L | IL6R-2B171/IL6R-L (antibody, human IgG1, name in EU numbering) heavy: QVQLQESGPGLVKPSETLSLTCAVSGHSISHDHAWSWVRQPPGEGLEWIGFISYSGITNYNPSLQGRVTISRDNSKNTLYLQMNSLRAEDTAVYYCARSLARTTAMDYWGEGTLVTVSSASTKGPSVFPLAPSSKSTSGGTAALGCLVKDYFPEPVTVSWNSGALTSGVHTFPAVLQSSGLYSLSSVVTVPSSSLGTQTYICNVNHKPSNTKVDKKVEPKSCDKTHTCPPCPAPELLGGDSVFLFPPKPKDTLMISRTPEVTCVVVDVSHEDPEVKFNWYVDGVEVHNAKTKPREEQYNSTYRVVSVLTVLHQDWLNGKEYKCKLSNKALPAPIEKTISKAKGQPREPQVYTLPPSRDELTKNQVSLTCLVKGFYPSDIAVEWESNGQPENNYKTTPPVLDSDGSFFLYSKLTVDKSRWQQGNVFSCSVMHEALHNHYTQESLSLSP light: DIQMTQSPSSLSASVGDRVTITCRASQDISSYLNWYQQKPGKAPKLLIYYTSRLHSGVPSRFSGSGSGTDFTFTISSLQPEDIATYYCQQGNTLPYTFGQGTKVEIK
4 | 77 % of IL6R-BF648/IL6R-L | 107 % of IL6R-BF648/IL6R-L | 56 % of IL6R-BF648/IL6R-L | 69 % of IL6R-BF648/IL6R-L | IL6R-BP103/IL6R-L (antibody, human IgG1, name in EU numbering) heavy: QVQLQESGPGLVKPSETLSLTCAVSGHSISHDHAWSWVRQPPGEGLEWIGFISYSGITNYNPSLQGRVTISRDNSKNTLYLQMNSLRAEDTAVYYCARSLARTTAMDYWGEGTLVTVSSASTKGPSVFPLAPSSKSTSGGTAALGCLVKDYFPEPVTVSWNSGALTSGVHTFPAVLQSSGLYSLSSVVTVPSSSLGTQTYICNVNHKPSNTKVDKKVEPKSCDKTHTCPPCPAPELLGGDSVFLFPPKPKDTLMISRTPEVTCVVVDVVHEDPEVKFNWYVDGVEVHNAKTKPREEQYNSTYRVVSVLTVLHQDWLNGKEYKCKVSNKALPAPIEKTISKAKGQPREPQVYTLPPSRDELTKNQVSLTCLVKGFYPSDIAVEWESNGQPENNYKTTPPVLDSDGSFFLYSKLTVDKSRWQQGNVFSCSVMHEALHNHYTQESLSLSP light: DIQMTQSPSSLSASVGDRVTITCRASQDISSYLNWYQQKPGKAPKLLIYYTSRLHSGVPSRFSGSGSGTDFTFTISSLQPEDIATYYCQQGNTLPYTFGQGTKVEIK
5 | 86 % of IL6R-BF648/IL6R-L | 106 % of IL6R-BF648/IL6R-L | 104 % of IL6R-BF648/IL6R-L | 66 % of IL6R-BF648/IL6R-L | IL6R-BP102/IL6R-L (antibody, human IgG1, name in EU numbering) heavy: QVQLQESGPGLVKPSETLSLTCAVSGHSISHDHAWSWVRQPPGEGLEWIGFISYSGITNYNPSLQGRVTISRDNSKNTLYLQMNSLRAEDTAVYYCARSLARTTAMDYWGEGTLVTVSSASTKGPSVFPLAPSSKSTSGGTAALGCLVKDYFPEPVTVSWNSGALTSGVHTFPAVLQSSGLYSLSSVVTVPSSSLGTQTYICNVNHKPSNTKVDKKVEPKSCDKTHTCPPCPAPELLGGDSVFLFPPKPKDTLMISRTPEVTCVVVDVQHEDPEVKFNWYVDGVEVHNAKTKPREEQYNSTYRVVSVLTVLHQDWLNGKEYKCKVSNKALPAPIEKTISKAKGQPREPQVYTLPPSRDELTKNQVSLTCLVKGFYPSDIAVEWESNGQPENNYKTTPPVLDSDGSFFLYSKLTVDKSRWQQGNVFSCSVMHEALHNHYTQESLSLSP light: DIQMTQSPSSLSASVGDRVTITCRASQDISSYLNWYQQKPGKAPKLLIYYTSRLHSGVPSRFSGSGSGTDFTFTISSLQPEDIATYYCQQGNTLPYTFGQGTKVEIK
6 | 138 % of IL6R-BF648/IL6R-L | 110 % of IL6R-BF648/IL6R-L | 121 % of IL6R-BF648/IL6R-L | 128 % of IL6R-BF648/IL6R-L | IL6R-BP100/IL6R-L (antibody, human IgG1, name in EU numbering) heavy: QVQLQESGPGLVKPSETLSLTCAVSGHSISHDHAWSWVRQPPGEGLEWIGFISYSGITNYNPSLQGRVTISRDNSKNTLYLQMNSLRAEDTAVYYCARSLARTTAMDYWGEGTLVTVSSASTKGPSVFPLAPSSKSTSGGTAALGCLVKDYFPEPVTVSWNSGALTSGVHTFPAVLQSSGLYSLSSVVTVPSSSLGTQTYICNVNHKPSNTKVDKKVEPKSCDKTHTCPPCPAPELLGGDSVFLFPPKPKDTLMISRTPEVTCVVVDVAHEDPEVKFNWYVDGVEVHNAKTKPREEQYNSTYRVVSVLTVLHQDWLNGKEYKCKVSNKALPAPIEKTISKAKGQPREPQVYTLPPSRDELTKNQVSLTCLVKGFYPSDIAVEWESNGQPENNYKTTPPVLDSDGSFFLYSKLTVDKSRWQQGNVFSCSVMHEALHNHYTQESLSLSP light: DIQMTQSPSSLSASVGDRVTITCRASQDISSYLNWYQQKPGKAPKLLIYYTSRLHSGVPSRFSGSGSGTDFTFTISSLQPEDIATYYCQQGNTLPYTFGQGTKVEIK
7 | 127 % of IL6R-BF648/IL6R-L | 116 % of IL6R-BF648/IL6R-L | 127 % of IL6R-BF648/IL6R-L | 110 % of IL6R-BF648/IL6R-L | IL6R-BP106/IL6R-L (antibody, human IgG1, name in EU numbering) heavy: QVQLQESGPGLVKPSETLSLTCAVSGHSISHDHAWSWVRQPPGEGLEWIGFISYSGITNYNPSLQGRVTISRDNSKNTLYLQMNSLRAEDTAVYYCARSLARTTAMDYWGEGTLVTVSSASTKGPSVFPLAPSSKSTSGGTAALGCLVKDYFPEPVTVSWNSGALTSGVHTFPAVLQSSGLYSLSSVVTVPSSSLGTQTYICNVNHKPSNTKVDKKVEPKSCDKTHTCPPCPAPELLGGDSVFLFPPKPKDTLMISRTPEVTCVVVDVSDEDPEVKFNWYVDGVEVHNAKTKPREEQYNSTYRVVSVLTVLHQDWLNGKEYKCKVSNKALPAPIEKTISKAKGQPREPQVYTLPPSRDELTKNQVSLTCLVKGFYPSDIAVEWESNGQPENNYKTTPPVLDSDGSFFLYSKLTVDKSRWQQGNVFSCSVMHEALHNHYTQESLSLSP light: DIQMTQSPSSLSASVGDRVTITCRASQDISSYLNWYQQKPGKAPKLLIYYTSRLHSGVPSRFSGSGSGTDFTFTISSLQPEDIATYYCQQGNTLPYTFGQGTKVEIK
8 | 3260 % of IL6R-BF648/IL6R-L | 58 % of IL6R-BF648/IL6R-L | 145 % of IL6R-BF648/IL6R-L | 1600 % of IL6R-BF648/IL6R-L | IL6R-B3/IL6R-L (antibody, human IgG1, IL6R-G1d with K439E (EU numbering)) heavy: not shown light: DIQMTQSPSSLSASVGDRVTITCRASQDISSYLNWYQQKPGKAPKLLIYYTSRLHSGVPSRFSGSGSGTDFTFTISSLQPEDIATYYCQQGNTLPYTFGQGTKVEIK
9 | 144 % of IL6R-BF648/IL6R-L | 132 % of IL6R-BF648/IL6R-L | 140 % of IL6R-BF648/IL6R-L | 179 % of IL6R-BF648/IL6R-L | IL6R-2B172/IL6R-L (antibody, human IgG1, name in EU numbering) heavy: QVQLQESGPGLVKPSETLSLTCAVSGHSISHDHAWSWVRQPPGEGLEWIGFISYSGITNYNPSLQGRVTISRDNSKNTLYLQMNSLRAEDTAVYYCARSLARTTAMDYWGEGTLVTVSSASTKGPSVFPLAPSSKSTSGGTAALGCLVKDYFPEPVTVSWNSGALTSGVHTFPAVLQSSGLYSLSSVVTVPSSSLGTQTYICNVNHKPSNTKVDKKVEPKSCDKTHTCPPCPAPELLGGDSVFLFPPKPKDTLMISRTPEVTCVVVDVSHEDPEVKFNWYVDGVEVHNAKTKPREEQYNSTYRVVSVLTVLHQDWLNGKEYKCKMSNKALPAPIEKTISKAKGQPREPQVYTLPPSRDELTKNQVSLTCLVKGFYPSDIAVEWESNGQPENNYKTTPPVLDSDGSFFLYSKLTVDKSRWQQGNVFSCSVMHEALHNHYTQESLSLSP light: DIQMTQSPSSLSASVGDRVTITCRASQDISSYLNWYQQKPGKAPKLLIYYTSRLHSGVPSRFSGSGSGTDFTFTISSLQPEDIATYYCQQGNTLPYTFGQGTKVEIK
